Source: PMC9475539 (The EMBO Journal, 2022)
Numbering of substitutions follows the chain as printed. In names and notes the source's numbering stands.

B1: PerM from Escherichia coli (natural protein, E. coli K-12, UniProt P0AFI9 1-353, looked up)
chain: MLEMLMQWYRRRFSDPEAIALLVILVAGFGIIFFFSGLLAPLLVAIVLAYLLEWPTVRLQSIGCSRRWATSIVLVVFVGILLLMAFVVLPIAWQQGIYLIRDMPGMLNKLSDFAATLPRRYPALMDAGIIDAMAENMRSRMLTMGDSVVKISLASLVGLLTIAVYLVLVPLMVFFLLKDKEQMLNAVRRVLPRNRGLAGQVWKEMNQQITNYIRGKVLEMIVVGIATWLGFLLFGLNYSLLLAVLVGFSVLIPYIGAFVVTIPVVGVALFQFGAGTEFWSCFAVYLIIQALDGNLLVPVLFSEAVNLHPLVIILSVVIFGGLWGFWGVFFAIPLATLIKAVIHAWPDGQIAQE
B2: YdiK from Escherichia coli (natural protein, E. coli K-12, UniProt P0AFS7 1-370, looked up)
chain: MVNVRQPRDVAQILLSVLFLAIMIVACLWIVQPFILGFAWAGTVVIATWPVLLRLQKIMFGRRSLAVLVMTLLLVMVFIIPIALLVNSIVDGSGPLIKAISSGDMTLPDLAWLNTIPVIGAKLYAGWHNLLDMGGTAIMAKVRPYIGTTTTWFVGQAAHIGRFMVHCALMLLFSALLYWRGEQVAQGIRHFATRLAGVRGDAAVLLAAQAIRAVALGVVVTALVQAVLGGIGLAVSGVPYATLLTVLMILSCLVQLGPLPVLIPAIIWLYWTGDTTWGTVLLVWSGVVGTLDNVIRPMLIRMGADLPLILILSGVIGGLIAFGMIGLFIGPVLLAVSWRLFAAWVEEVPPPTDQPEEILEELGEIEKPNK
B3: TqsA (transporter of quorum-sensing signal AI-2) from Escherichia coli (natural protein, E. coli K-12, UniProt P0AFS5 1-344, looked up)
chain: MAKPIITLNGLKIVIMLGMLVIILCGIRFAAEIIVPFILALFIAVILNPLVQHMVRWRVPRVLAVSILMTIIVMAMVLLLAYLGSALNELTRTLPQYRNSIMTPLQALEPLLQRVGIDVSVDQLAHYIDPNAAMTLLTNLLTQLSNAMSSIFLLLLTVLFMLLEVPQLPGKFQQMMARPVEGMAAIQRAIDSVSHYLVLKTAISIITGLVAWAMLAALDVRFAFVWGLLAFALNYIPNIGSVLAAIPPIAQVLVFNGFYEALLVLAGYLLINLVFGNILEPRIMGRGLGLSTLVVFLSLIFWGWLLGPVGMLLSVPLTIIVKIALEQTAGGQSIAVLLSDLNKE
B4: TqsA P237A (natural protein, E. coli K-12, UniProt P0AFS5 1-344, looked up)
chain: B3 chain with P237A
B5: TqsA K200L (natural protein, E. coli K-12, UniProt P0AFS5 1-344, looked up)
chain: B3 chain with K200L
B6: TqsA R61L (natural protein, E. coli K-12, UniProt P0AFS5 1-344, looked up)
chain: B3 chain with R61L
B7: TqsA E280Q (natural protein, E. coli K-12, UniProt P0AFS5 1-344, looked up)
chain: B3 chain with E280Q
B8: TqsA E164Q (natural protein, E. coli K-12, UniProt P0AFS5 1-344, looked up)
chain: B3 chain with E164Q
B9: TqsA N234L (natural protein, E. coli K-12, UniProt P0AFS5 1-344, looked up)
chain: B3 chain with N234L
B10: TqsA N238L (natural protein, E. coli K-12, UniProt P0AFS5 1-344, looked up)
chain: B3 chain with N238L
B11: YhhT from Escherichia coli (natural protein, E. coli K-12, UniProt P0AGM0 1-349, looked up)
chain: METPQPDKTGMHILLKLASLVVILAGIHAAADIIVQLLLALFFAIVLNPLVTWFIRRGVQRPVAITIVVVVMLIALTALVGVLAASFNEFISMLPKFNKELTRKLFKLQEMLPFLNLHMSPERMLQRMDSEKVVTFTTALMTGLSGAMASVLLLVMTVVFMLFEVRHVPYKMRFALNNPQIHIAGLHRALKGVSHYLALKTLLSLWTGVIVWLGLELMGVQFALMWAVLAFLLNYVPNIGAVISAVPPMIQVLLFNGVYECILVGALFLVVHMVIGNILEPRMMGHRLGMSTMVVFLSLLIWGWLLGPVGMLLSVPLTSVCKIWMETTKGGSKLAILLGPGRPKSRLPG

Assays:
native gel or EMSA = biological target: the molecule itself; experiment: native gel or EMSA
cryo-EM structure = biological target: the molecule itself; experiment: cryo-EM structure
SEC + native gel or EMSA = biological target: the molecule itself; experiment: SEC + native gel or EMSA
[1] = biological target: the molecule itself; experiment: cryo-EM 2D class averages

Protein	stoichiometry N (SEC + native gel or EMSA)	further results
B1	–	stoichiometry N (native gel or EMSA): 2
B2	–	stoichiometry N (cryo-EM structure): 5
B3	–	stoichiometry N (cryo-EM structure): 5
B4	5	–
B5	5	–
B6	5	–
B7	5	–
B8	5	–
B9	5	–
B10	5	–
B11	–	stoichiometry N [1]: 5
